# Test results reported in patent US20220249561A1 (SHINSHU UNIVERSITY, published 2022).
# How the values were obtained:
# LTK 001P = biological target: T1, LTK 001P; assay: SPR, Biacore 8K; LTK 001P captured on Protein A chip, ligand as analyte, 6 concentrations from 20 nM
# T1 construct: Expressed in Expi293 cells and captured on a Protein A chip through its Fc
# ALK 001P = biological target: T2, ALK 001P; assay: SPR, Biacore 8K; ALK 001P captured on Protein A chip, ligand as analyte, 6 concentrations from 20 nM
# T2 construct: ALK (1-19) is described only as a region comprising a secretory signal, and no cleavage site is stated; Expressed in Expi293 cells and captured on a Protein A chip through its Fc
Binder,binding result (LTK 001P),binding result (ALK 001P)
Ligand 003P (ligand) DGHHHHHHGSLQDSEVNQEAKPEVKPEVKPETHINLKVSDGSSEIFFKIKKTTPLRRLMEAFAKRQGKEMDSLTFLYDGIEIQADQTPEDLDMEDNDIIEAHREQIGGLEVLFQGPAEAAGLGPSPEQRVEIVPRDLRMKDKFLKHLTGPLYFSPKCSKHFHRLYHNTRDCTIPAYYKRCARLLTRLAVSPVCMEDKQ,binds,binds
Ligand 022P (ligand) DGHHHHHHGSLQDSEVNQEAKPEVKPEVKPETHINLKVSDGSSEIFFKIKKTTPLRRLMEAFAKRQGKEMDSLTFLYDGIEIQADQTPEDLDMEDNDIIEAHREQIGGLEVLFQGPGPLYFSPKCSKHFHRLYHNTRDCTIPAYYKRCARLLTRLAVSPVCMEDKQ,binds,binds
Ligand 012P (ligand) DGHHHHHHGSLQDSEVNQEAKPEVKPEVKPETHINLKVSDGSSEIFFKIKKTTPLRRLMEAFAKRQGKEMDSLTFLYDGIEIQADQTPEDLDMEDNDIIEAHREQIGGLEVLFQGPRVEIVPRDLRMKDKFLKHLTGPLYFSPKCSKHFHRLYHNTRDCTIPAYYKRCARLLTRLAVSPVCMEDKQ,binds,binds
Ligand 013P (ligand) DGHHHHHHGSLQDSEVNQEAKPEVKPEVKPETHINLKVSDGSSEIFFKIKKTTPLRRLMEAFAKRQGKEMDSLTFLYDGIEIQADQTPEDLDMEDNDIIEAHREQIGGLEVLFQGPEIVPRDLRMKDKFLKHLTGPLYFSPKCSKHFHRLYHNTRDCTIPAYYKRCARLLTRLAVSPVCMEDKQ,binds,binds
Ligand 017P (ligand) DGHHHHHHGSLQDSEVNQEAKPEVKPEVKPETHINLKVSDGSSEIFFKIKKTTPLRRLMEAFAKRQGKEMDSLTFLYDGIEIQADQTPEDLDMEDNDIIEAHREQIGGLEVLFQGPMKDKFLKHLTGPLYFSPKCSKHFHRLYHNTRDCTIPAYYKRCARLLTRLAVSPVCMEDKQ,binds,binds
Ligand 023P (ligand) DGHHHHHHGSLQDSEVNQEAKPEVKPEVKPETHINLKVSDGSSEIFFKIKKTTPLRRLMEAFAKRQGKEMDSLTFLYDGIEIQADQTPEDLDMEDNDIIEAHREQIGGLEVLFQGPAEAAGLGPSPEQRVEIVPRDLRMKDKFLKHLTGPLYFSPKCSKHFHRLYHNTRDCTIPAYYKRCARLLTRLAVSPVCMED,binds,binds
Ligand 008P (ligand) DGHHHHHHGSLQDSEVNQEAKPEVKPEVKPETHINLKVSDGSSEIFFKIKKTTPLRRLMEAFAKRQGKEMDSLTFLYDGIEIQADQTPEDLDMEDNDIIEAHREQIGGLEVLFQGPGLGPSPEQRVEIVPRDLRMKDKFLKHLTGPLYFSPKCSKHFHRLYHNTRDCTIPAYYKRCARLLTRLAVSPVCMEDKQ,binds,binds
Ligand 014P (ligand) DGHHHHHHGSLQDSEVNQEAKPEVKPEVKPETHINLKVSDGSSEIFFKIKKTTPLRRLMEAFAKRQGKEMDSLTFLYDGIEIQADQTPEDLDMEDNDIIEAHREQIGGLEVLFQGPVPRDLRMKDKFLKHLTGPLYFSPKCSKHFHRLYHNTRDCTIPAYYKRCARLLTRLAVSPVCMEDKQ,binds,binds
Ligand 006P (ligand) DGHHHHHHGSLQDSEVNQEAKPEVKPEVKPETHINLKVSDGSSEIFFKIKKTTPLRRLMEAFAKRQGKEMDSLTFLYDGIEIQADQTPEDLDMEDNDIIEAHREQIGGLEVLFQGPGRAEAAGLGPSPEQRVEIVPRDLRMKDKFLKHLTGPLYFSPKCSKHFHRLYHNTRDCTIPAYYKRCARLLTRLAVSPVCMEDKQ,binds,binds
Ligand 007P (ligand) DGHHHHHHGSLQDSEVNQEAKPEVKPEVKPETHINLKVSDGSSEIFFKIKKTTPLRRLMEAFAKRQGKEMDSLTFLYDGIEIQADQTPEDLDMEDNDIIEAHREQIGGLEVLFQGPAAGLGPSPEQRVEIVPRDLRMKDKFLKHLTGPLYFSPKCSKHFHRLYHNTRDCTIPAYYKRCARLLTRLAVSPVCMEDKQ,binds,binds
Ligand 005P (ligand) DGHHHHHHGSLQDSEVNQEAKPEVKPEVKPETHINLKVSDGSSEIFFKIKKTTPLRRLMEAFAKRQGKEMDSLTFLYDGIEIQADQTPEDLDMEDNDIIEAHREQIGGLEVLFQGPALGRAEAAGLGPSPEQRVEIVPRDLRMKDKFLKHLTGPLYFSPKCSKHFHRLYHNTRDCTIPAYYKRCARLLTRLAVSPVCMEDKQ,binds,binds
Ligand 019P (ligand) DGHHHHHHGSLQDSEVNQEAKPEVKPEVKPETHINLKVSDGSSEIFFKIKKTTPLRRLMEAFAKRQGKEMDSLTFLYDGIEIQADQTPEDLDMEDNDIIEAHREQIGGLEVLFQGPFLKHLTGPLYFSPKCSKHFHRLYHNTRDCTIPAYYKRCARLLTRLAVSPVCMEDKQ,binds,binds
Ligand 015P (ligand) DGHHHHHHGSLQDSEVNQEAKPEVKPEVKPETHINLKVSDGSSEIFFKIKKTTPLRRLMEAFAKRQGKEMDSLTFLYDGIEIQADQTPEDLDMEDNDIIEAHREQIGGLEVLFQGPRDLRMKDKFLKHLTGPLYFSPKCSKHFHRLYHNTRDCTIPAYYKRCARLLTRLAVSPVCMEDKQ,binds,binds
Ligand 021P (ligand) DGHHHHHHGSLQDSEVNQEAKPEVKPEVKPETHINLKVSDGSSEIFFKIKKTTPLRRLMEAFAKRQGKEMDSLTFLYDGIEIQADQTPEDLDMEDNDIIEAHREQIGGLEVLFQGPLTGPLYFSPKCSKHFHRLYHNTRDCTIPAYYKRCARLLTRLAVSPVCMEDKQ,binds,binds
Ligand 024P (ligand) DGHHHHHHGSLQDSEVNQEAKPEVKPEVKPETHINLKVSDGSSEIFFKIKKTTPLRRLMEAFAKRQGKEMDSLTFLYDGIEIQADQTPEDLDMEDNDIIEAHREQIGGLEVLFQGPAEAAGLGPSPEQRVEIVPRDLRMKDKFLKHLTGPLYFSPKCSKHFHRLYHNTRDCTIPAYYKRCARLLTRLAVSPVCM,binds,binds
Ligand 016P (ligand) DGHHHHHHGSLQDSEVNQEAKPEVKPEVKPETHINLKVSDGSSEIFFKIKKTTPLRRLMEAFAKRQGKEMDSLTFLYDGIEIQADQTPEDLDMEDNDIIEAHREQIGGLEVLFQGPLRMKDKFLKHLTGPLYFSPKCSKHFHRLYHNTRDCTIPAYYKRCARLLTRLAVSPVCMEDKQ,binds,binds
Ligand 020P (ligand) DGHHHHHHGSLQDSEVNQEAKPEVKPEVKPETHINLKVSDGSSEIFFKIKKTTPLRRLMEAFAKRQGKEMDSLTFLYDGIEIQADQTPEDLDMEDNDIIEAHREQIGGLEVLFQGPKHLTGPLYFSPKCSKHFHRLYHNTRDCTIPAYYKRCARLLTRLAVSPVCMEDKQ,binds,binds
"Ligand 011P (ligand, also called Li 011P) DGHHHHHHGSLQDSEVNQEAKPEVKPEVKPETHINLKVSDGSSEIFFKIKKTTPLRRLMEAFAKRQGKEMDSLTFLYDGIEIQADQTPEDLDMEDNDIIEAHREQIGGLEVLFQGPEQRVEIVPRDLRMKDKFLKHLTGPLYFSPKCSKHFHRLYHNTRDCTIPAYYKRCARLLTRLAVSPVCMEDKQ",binds,binds
"Ligand 018P (ligand, also called Ligand 18P) DGHHHHHHGSLQDSEVNQEAKPEVKPEVKPETHINLKVSDGSSEIFFKIKKTTPLRRLMEAFAKRQGKEMDSLTFLYDGIEIQADQTPEDLDMEDNDIIEAHREQIGGLEVLFQGPDKFLKHLTGPLYFSPKCSKHFHRLYHNTRDCTIPAYYKRCARLLTRLAVSPVCMEDKQ",binds,binds
Ligand 009P (ligand) DGHHHHHHGSLQDSEVNQEAKPEVKPEVKPETHINLKVSDGSSEIFFKIKKTTPLRRLMEAFAKRQGKEMDSLTFLYDGIEIQADQTPEDLDMEDNDIIEAHREQIGGLEVLFQGPGPSPEQRVEIVPRDLRMKDKFLKHLTGPLYFSPKCSKHFHRLYHNTRDCTIPAYYKRCARLLTRLAVSPVCMEDKQ,binds,binds
Ligand 010P (ligand) DGHHHHHHGSLQDSEVNQEAKPEVKPEVKPETHINLKVSDGSSEIFFKIKKTTPLRRLMEAFAKRQGKEMDSLTFLYDGIEIQADQTPEDLDMEDNDIIEAHREQIGGLEVLFQGPSPEQRVEIVPRDLRMKDKFLKHLTGPLYFSPKCSKHFHRLYHNTRDCTIPAYYKRCARLLTRLAVSPVCMEDKQ,binds,binds
